This is an account of results in patent publication US20240327869, “SYNTHETIC GENETIC ELEMENTS FOR BIOMANUFACTURE” (JANSSEN BIOTECH, INC., published 2024).

For data set [1], the target named is T1, SR21 serine recombinase (Serine Recombinase 21) (Bacillus safensis strain CCMA-560).
T1 chain: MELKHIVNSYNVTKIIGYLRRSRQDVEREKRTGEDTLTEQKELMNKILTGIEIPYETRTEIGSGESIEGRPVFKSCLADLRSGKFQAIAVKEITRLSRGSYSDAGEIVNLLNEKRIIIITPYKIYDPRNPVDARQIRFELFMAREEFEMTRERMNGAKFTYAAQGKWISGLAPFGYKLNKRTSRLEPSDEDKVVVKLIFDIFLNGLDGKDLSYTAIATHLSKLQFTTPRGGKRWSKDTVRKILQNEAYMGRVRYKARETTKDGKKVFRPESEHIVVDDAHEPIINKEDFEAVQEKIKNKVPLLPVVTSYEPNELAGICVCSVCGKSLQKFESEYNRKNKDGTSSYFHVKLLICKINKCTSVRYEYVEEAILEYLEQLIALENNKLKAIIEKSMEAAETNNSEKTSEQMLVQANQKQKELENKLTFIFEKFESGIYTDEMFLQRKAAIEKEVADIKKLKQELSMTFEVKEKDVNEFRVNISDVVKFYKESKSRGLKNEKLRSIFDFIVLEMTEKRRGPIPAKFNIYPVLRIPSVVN
Kind of data set: cell_activity; attP x attB (SEQ 9) inversion reporter P41 in HEK293, fold increase in fLUC over reporter alone, 37 C 48 h. To be noted: tags: untagged; expressed from CMV promoter plasmid P175 or Ad5-CMV-SR21. As to the method:
(§1) To measure SR21 recombinase activity in human cells, 75,000 HEK293 cells were plated into each well of 96-well tissue culture plates in 100 μl of high-glucose DMEM+10% Fetal Bovine Serum. The recombinase reporter plasmid (P041) ±the SR21 Recombinase expression plasmid (P175)+deoxynucleotides (to normalize DNA amounts) were complexed with Fugene-HD transfection reagent in OptiMEM medium for 15 minutes at room temperature as shown in Table 1 and transfected into triplicate wells of the plated cells. Plates were incubated at 37° C. for 48 hours.
(§2) Firefly Luciferase (fLUC) and Renilla luciferase (rLUC) was assayed sequentially in transfected wells using the Dual Glo assay kit from Promega. Medium was removed from the transfected wells of the tissue culture plate and 100 μl of a 1:1 mixture of DMEM medium (without phenol red) and the Dual Glo luciferase+ fLUC substrate was added. The plate was incubated at room temperature for 10 minutes. The lysate was transferred to an opaque white 96-well plate. fLUC activity was measured using the Envision multilabel reader. Next, 50 μl per well of the Stop-and-Glo buffer+Renilla substrate was added and the plate was incubated with gentle shaking for 10 minutes. The Renilla luciferase signal was read on the same Envision reader.

Data set [2] concerns the target T1, SR21 serine recombinase (Serine …). Kind of data set: cell_activity; attB partner of attP (SEQ 7) in inversion reporter P41, HEK293, fold increase in fLUC over reporter alone. The settings on record: tags: untagged; expressed from CMV promoter plasmid P175 or Ad5-CMV-SR21. The procedure: as §1, §2

B1: SR21 attP (dsDNA)
DNA 1: AATTAAGTATCATGATAAACTGACAAAGCGGTATATCAAGATACTTAATA
DNA 2: TATTAAGTATCTTGATATACCGCTTTGTCAGTTTATCATGATACTTAATT
In the case of B1, the activity in data set [1] was 1540 fold.

B2: SR21 attB (Fairview) (dsDNA)
DNA 1: CGTCAACATCTCCACTGACAAAGCGGTTTCTCCAACGAAT
DNA 2: ATTCGTTGGAGAAACCGCTTTGTCAGTGGAGATGTTGACG
For the molecule B2, the activity in data set [2] amounted to 1540 fold.
